This is an account of results in patent US6413943 (CELL GENESYS, dated 2002).

Some targets named below: CDK2/cyclin A complex (UniProt P24941 1-298); CDK4/cyclin D1 complex (UniProt P11802 1-303; P24385 1-295); CDC2/cyclin B complex (UniProt P06493 1-297); CDK2/cyclin E complex (UniProt P24941 1-298).
Test in all cases: cell-based or functional assay

CDC2/cyclin B complex, sequence (P06493 whole entry, one chain of several): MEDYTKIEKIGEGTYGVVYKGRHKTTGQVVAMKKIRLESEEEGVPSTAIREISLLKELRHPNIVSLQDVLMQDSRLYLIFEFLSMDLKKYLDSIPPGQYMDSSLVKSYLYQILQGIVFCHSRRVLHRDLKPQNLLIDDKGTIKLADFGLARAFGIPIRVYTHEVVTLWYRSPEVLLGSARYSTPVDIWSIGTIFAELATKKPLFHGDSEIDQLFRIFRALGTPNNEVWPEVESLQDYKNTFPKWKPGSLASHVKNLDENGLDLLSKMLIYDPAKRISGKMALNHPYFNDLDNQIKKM
CDK4/cyclin D1 complex, sequence (P11802 whole entry, chain 1 of 2): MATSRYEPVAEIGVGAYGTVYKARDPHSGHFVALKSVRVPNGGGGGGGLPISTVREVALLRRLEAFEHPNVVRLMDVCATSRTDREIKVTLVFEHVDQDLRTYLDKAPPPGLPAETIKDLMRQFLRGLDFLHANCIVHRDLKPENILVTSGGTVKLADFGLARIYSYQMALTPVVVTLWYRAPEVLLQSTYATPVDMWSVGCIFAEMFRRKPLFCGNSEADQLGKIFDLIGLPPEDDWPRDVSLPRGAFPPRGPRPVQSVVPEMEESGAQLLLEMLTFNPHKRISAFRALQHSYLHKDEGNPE
CDK4/cyclin D1 complex, sequence (P24385 whole entry, chain 2 of 2): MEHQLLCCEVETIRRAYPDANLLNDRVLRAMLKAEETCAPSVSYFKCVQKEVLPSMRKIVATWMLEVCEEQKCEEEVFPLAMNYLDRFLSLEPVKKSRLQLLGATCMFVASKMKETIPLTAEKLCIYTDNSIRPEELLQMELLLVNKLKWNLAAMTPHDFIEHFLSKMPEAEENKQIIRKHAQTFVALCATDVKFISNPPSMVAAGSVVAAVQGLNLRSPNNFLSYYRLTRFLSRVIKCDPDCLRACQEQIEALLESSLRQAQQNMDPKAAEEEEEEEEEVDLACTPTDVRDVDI

B1: human p16 (other)
chain: MEPAAGSSMEPSADWLATAAARGRVEEVRALLEAGALPNAPNSYGRRPIQVMMMGSARVAELLLLHGAEPNCADPATLTRPVHDAAREGFLDTLVVLHRAGARLDVRDAWGRLPVDLAEELGHRDVARYLRAAAGGTRGSNHARIDAAEGPSDIPD
For the molecule B1, the “IC50, in vitro kinase activity” value in the assay with CDK2/cyclin A complex was > 500 nM. For the same molecule, the “IC50, in vitro kinase activity (GST-Rb phosphorylation)” value is 250 nM in the assay with CDK4/cyclin D1 complex and > 500 nM in the assay with CDK2/cyclin E complex. In the assay with CDC2/cyclin B complex, the “IC50, in vitro kinase activity (histone H1 phosphorylation)” value was > 500 nM.
